How the values were obtained:
full-length YU2 gp120 [1] = target: T1, full-length YU2 gp120 (HIV-1 strain YU2, UniProt P35961 32-498); test: SPR (Biacore), 1:1 Langmuir fit
T1 construct: domain: full-length gp120; also called wild-type gp120

full-length YU2 gp120 [2] = target: T1, full-length YU2 gp120; test: SPR (Biacore)

B1: VRC03 (antibody, V domains shown)
VH: QVQLVQSGAVIKTPGSSVKISCRASGYNFRDYSIHWVRLIPDKGFEWIGWIKPLWGAVSYARQLQGRVSMTRQLSQDPDDPDWGVAYMEFSGLTPADTAEYFCVRRGSCDYCGDFPWQYWGQGTVVVVSS
VL: EIVLTQSPGILSLSPGETATLFCKASQGGNAMTWYQKRRGQVPRLLIYDTSRRASGVPDRFVGSGSGTDFFLTINKLDREDFAVYYCQQFEFFGLGSELEVH
notes: also called mAb VRC03
Question: How did the Kd (full-length YU2 gp120 [1]) turn out when B1 was run?
Answer: The Kd was 73.1 nM.

Question: What about the “fold lower affinity than VRC01 and VRC02” value (full-length YU2 gp120 [2]) of the same binder?
Answer: Its value is ~10 fold.
